# Results taken from patent publication US9562073B2, “Matriptase and u-plasminogen activator substrates and other cleavable moieties and methods of use thereof” (CytomX Therapeutics, Inc., priority 2014, dated 2017).
# Biological target: T1, Human matriptase-1 (Homo sapiens, UniProt Q9Y5Y6)
# T1 construct: purchased Research & Diagnostics Systems, Inc
# T1 sequence (Q9Y5Y6 1-855): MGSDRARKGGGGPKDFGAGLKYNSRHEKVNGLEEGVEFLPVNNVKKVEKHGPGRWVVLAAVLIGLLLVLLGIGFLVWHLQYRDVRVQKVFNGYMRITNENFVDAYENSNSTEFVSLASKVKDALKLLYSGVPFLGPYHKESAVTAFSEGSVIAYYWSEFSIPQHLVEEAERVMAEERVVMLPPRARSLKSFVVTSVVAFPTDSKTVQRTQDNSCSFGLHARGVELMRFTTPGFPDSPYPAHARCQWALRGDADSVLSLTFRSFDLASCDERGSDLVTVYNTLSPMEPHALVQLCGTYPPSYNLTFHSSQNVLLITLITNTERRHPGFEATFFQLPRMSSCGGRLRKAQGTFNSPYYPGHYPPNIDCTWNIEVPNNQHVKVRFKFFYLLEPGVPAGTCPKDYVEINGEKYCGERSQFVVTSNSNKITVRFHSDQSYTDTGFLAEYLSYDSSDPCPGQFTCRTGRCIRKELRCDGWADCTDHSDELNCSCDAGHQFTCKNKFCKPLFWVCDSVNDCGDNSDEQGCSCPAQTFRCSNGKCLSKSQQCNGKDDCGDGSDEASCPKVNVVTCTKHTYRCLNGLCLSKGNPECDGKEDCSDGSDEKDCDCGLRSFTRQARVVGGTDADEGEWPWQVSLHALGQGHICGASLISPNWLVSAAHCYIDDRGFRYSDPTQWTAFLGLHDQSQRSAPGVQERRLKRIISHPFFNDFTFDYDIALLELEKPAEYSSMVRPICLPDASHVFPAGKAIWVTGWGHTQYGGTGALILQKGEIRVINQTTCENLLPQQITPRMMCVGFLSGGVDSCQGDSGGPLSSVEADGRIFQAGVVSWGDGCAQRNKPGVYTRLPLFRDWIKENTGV
# Test: Substrate cleavage by matriptase-1 on cell-displayed platform scaffold (eCLiPS3.0), flow cytometry
# Format: biochemical
# Settings: substrate displayed in platform scaffold; TBST
# Protocol: Reagents and Strains: Streptavidin-conjugated phycoerythrin (SA-PE) (Invitrogen, Life Technologies) was used without modifications. Human matriptase-1 (Research & Diagnostics Systems, Inc.) was used without modifications. Human plasmin (Haematologic Technologies Inc.) was used without modifications. Human tPA (Molecular Innovations) was used without modifications. YPet fused to the SH3 domain of Mona (monocytic adaptor) was used without modifications. TBST, 50 mM Tris-HCl, 150 mM NaCl, 0.05% Tween20, pH 7.4, was used. […]
# Substrate Cleavage and Scaffold Stability Analysis: For screening and clone analysis, overnight cultures were subcultured by dilution into fresh medium (1:50) and grown for 1.5-2 hours. […] After incubation on ice (30 min), cells were washed with PBS and analyzed using a FACSAria™ cell sorter.
# For protease cleavage assays, cultures were induced for 1 hour. […] Background hydrolysis of the regions flanking the substrate site (using platform eCLiPS3.0-NSUB_SP described in PCT patent application PCT/US13/54378, filed Aug. 9, 2013 and published as WO 2014/026136 on Feb. 13, 2014), was measured under each reaction condition to ensure that hydrolysis occurred in the designated substrate region. […]
# Specifically, for each sample, conversion was determined by flow cytometry analyses using the relationship […]
# [formula] allowing substrate conversion to be expressed as […]
sequence,measurement,value
VAGRSMRP (Cleavable moiety),cleavage by matriptase-1,cleavage
